Data published in IntAct's records for PubMed 26342861.

B1: Wnt inhibitory factor 1 (Homo sapiens), Q9Y5W5 (parent)
chain: MARRSAFPAAALWLWSILLCLLALRAEAGPPQEESLYLWIDAHQARVLIGFEEDILIVSEGKMAPFTHDFRKAQQRMPAIPVNIHSMNFTWQAAGQAEYFYEFLSLRSLDKGIMADPTVNVPLLGTVPHKASVVQVGFPCLGKQDGVAAFEVDVIVMNSEGNTILQTPQNAIFFKTCQQAECPGGCRNGGFCNERRICECPDGFHGPHCEKALCTPRCMNGGLCVTPGFCICPPGFYGVNCDKANCSTTCFNGGTCFYPGKCICPPGLEGEQCEISKCPQPCRNGGKCIGKSKCKCSKGYQGDLCSKPVCEPGCGAHGTCHEPNKCQCQEGWHGRHCNKRYEASLIHALRPAGAQLRQHTPSLKKAEERRDPPESNYIW
partner: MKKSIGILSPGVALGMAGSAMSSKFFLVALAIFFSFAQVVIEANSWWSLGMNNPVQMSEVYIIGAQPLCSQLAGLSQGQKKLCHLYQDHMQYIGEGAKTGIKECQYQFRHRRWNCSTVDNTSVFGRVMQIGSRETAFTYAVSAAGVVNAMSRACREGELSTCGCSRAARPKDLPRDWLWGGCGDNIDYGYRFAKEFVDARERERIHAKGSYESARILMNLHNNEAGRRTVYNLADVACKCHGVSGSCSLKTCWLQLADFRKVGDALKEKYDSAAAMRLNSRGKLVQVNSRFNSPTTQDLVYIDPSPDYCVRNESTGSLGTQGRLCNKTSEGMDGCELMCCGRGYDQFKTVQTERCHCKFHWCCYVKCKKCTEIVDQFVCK
B2: Wnt inhibitory factor 1 (Homo sapiens), Q9Y5W5 (parent)
chain: B1 chain
partner: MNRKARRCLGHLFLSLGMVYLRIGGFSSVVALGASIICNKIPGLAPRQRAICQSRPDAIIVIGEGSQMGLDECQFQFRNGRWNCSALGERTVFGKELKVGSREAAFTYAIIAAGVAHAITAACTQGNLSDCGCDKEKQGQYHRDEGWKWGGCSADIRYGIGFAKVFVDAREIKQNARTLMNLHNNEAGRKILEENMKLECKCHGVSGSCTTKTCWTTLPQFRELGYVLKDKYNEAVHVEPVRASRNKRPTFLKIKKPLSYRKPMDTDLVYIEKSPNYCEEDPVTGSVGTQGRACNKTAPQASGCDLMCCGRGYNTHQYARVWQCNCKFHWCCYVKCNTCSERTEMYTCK

Variants of: B1
Conditions: with wnt5a_human WNT5A

effect of a mutation on the interaction | Variant
disrupting interaction | I155R

Variants of: B1
Conditions: with wnt5a_human WNT5A
Remark: another data set of the same source

effect of a mutation on the interaction | Variant
decreasing interaction | I155R

Variants of: B2
Conditions: with wnt7a_human WNT7A

effect of a mutation on the interaction | Variant
decreasing interaction | I155R
decreasing interaction | L123R
decreasing interaction | I172R

Variants of: B2
Conditions: with wnt7a_human WNT7A
Remark: another data set of the same source

effect of a mutation on the interaction | Variant
increasing interaction | I155R
